Measurements: the DeepSol protein solubility set

test: soluble on expression in E. coli; label from the status in PepcDB or PDB records

| Sequence | soluble on expression in E. coli |
| --- | --- |
| MTLLNLMIMQDYGISVCLTLTPYLQHELFSAMKSYFSKYILPVSLFTLPLSLSPSVSAFTLPEAWRAAQQHSADFQASHYQRDAVRARQQQAKAAFLPHVSANASYQRQPPSISSTRETQGWSVQVGQTLFDAAKFAQYRQSRFDTQAAEQRFDAAREELLLKVAESYFNVLLSRDTVAAHAAEKEAYAQQVRQAQALFNKGAATALDIHEAKAGYDNALAQEIAVLAEKQTYENQLNDYTDLDSKQIEAIDTANLLARYLPKLERYSLDEWQRIALSNNHEYRMQQLALQSSGQALRAAQNSRYPTVSAHVGYQNNLYTSSAQNNDYHYRGKGMSVGVQLNLPLYTGGELSGKIHEAEAQYGAAEAQLTATERHIKLAVRQAYTESGAARYQIMAQERVLESSRLKLKSTETGQQYGIRNRLEVIRARQEVAQAEQKLAQARYKFMLAYLRLVKESGLGLETVFAE | not soluble |
| MSIQLNGINCFYGAHQALFDITLDCPEGETLVLLGPSGAGKSSLLRVLNLLEMPRSGTLTIAGNHFDFTKTPSDKAIRELRQNVGMVFQQYNLWPHLTVVQNLIEAPCRVLGLTKDQALARAEKLLERLRLKPYSDRYPLHLSGGQQQRVAIARALMMEPQVLLFDEPTAALDPEITAQIVSIIHELAETNITQVIVTHEVEVARKTASRVIYMENGHIVEHGDAGCFAHPQTEAFKNYLSH | not soluble |
| MSLNTLNQDIAFKIFTMFYKVCYGKKKHTYTSFFEKFQICTYNDILLLCDEVAKLFKMENSLENVTLPCKVFGDVHGNLFDLLDFFNLYNWPMHNNKVFLGNLINRGNYSLEVICLLFSLKILFPKHIYLLRGNHEDRLFNYIYGFYKDIEIKMKTNMEYMGIINYQEQVISAHSYELFNRINDVFEFFPLCVLLDKNILCIHGGIGDSVMTISDYQHIRKPILIPQNVDRYSNNKSEHVKKIIIDTLWSDPINYNDELDLQLLKNSSTYDIIPSRRGNITFKFGKHRLNDFLKNNQLKLIIRGHECVQEGYKYSYKRKLLTLFSAKNYCNKYNNNASNAFIVRKNKNIIIFNQILKYQHNCEGHHHHHH | not soluble |
| MDYQQLANQIKQWAIELGFEKVGICDVDLSEHEPALQAWLDAGYHGEMDWMARHGMMRARPAELLPGTLRVISARINYLPPQAQFASNLSDPNQAYISRYALGRDYHKLVRNQLKKLGEKIEQEVGKLGYRPFVDSAPILERPLAQKAGLGWTGKHSLILDKENGSWFFLGELLVDIPLPVDEPSENQCGKCTACITSCPTNAIVAEGVVDARRCVSYLTIEYSGVIPLEFRRAMGNRIYGCDDCQLVCPWNRFAPLTQQSDFHRRQSLNNADLVVLFEWDEATFLKNMEGSAIRRIGHQQWRRNLIIAMGNAPYSPRIIDTLQRHLGQSELLDEHIHWALEEQTQKTATPRQHARLIRIIEKGLPRDA | not soluble |
| MPMSSLPAAILSHMTAINNVPPPPLHSIPNLKKSKHINYGQLNALCHIRGQHSRSMSNILSAHDTFMKQYPKVFLHQKPRLPKLFKQEEQRELNEGKEESQHQQPDDSNNIAVHVQRAHGGHILYRPKRATEKFEEFLAILKKLPIHRTPYEHKTVWKFLKTIPDLTFQLNDKHLKTLSKTVFSETWLKGSTVVANDGFYVILKGLARPQTNVYKNLIEGSDSPDSFISQSFHSFIWSEEFKNSTLAEMYLPSYDSMLSKWSTFGTLEVMPQNESETQMFSVVTEDDCEILKIPAKGYAKIKEEKIKLENMQKLKLIRMCPYYEEWPTLSIYELIALLKWKKFPPGHVIVESGNIISFVGYINSGCCNIYRSIIGFVKLRSNKVKRSQKLVYMGKLKEKESFGEISVLLQVPFTCTIITKKEVEMAIIEDKDLFVA | soluble |
| MSLKNGKIANIGLINYVDLGKIIIKAKEEGKTAVDFKAIEDIMPWDEFVSSINETSEITRPKEYNSLDLIAEKYSTLRKYTPRLLKILEFKASKKGEPVLKAMETIKELNANTKRKVPKGAPLDFVTNQWEKYVYDQEGNIDKKYYELAVFTELKNAVRSGDISIVGSKQHKPFEEYLITDSEWEKYKAENTDFKVSLDAEEYLKARLDLLNNKLKYVSDNIKKLKGVSIEDNKFVLSRLEKAVPDEAKELATKLYSLIPRVNLSDIIIDISKFTAFDNNLIHASTNKEPKDNERSCITASLMALGTNIGLKKMEQAVKGISYKQMSNVVNWRMSDDNMEKAMAAITNYHHRQPYAVHWGDGSTSSSDGVRVKSAVEALNASYNPHYGLEKGVTMYSAVSDQYSRFGVGIINTNSRDAIHIIDILLNHRTELEIEEHYTDTAGYTDQVFGLTHLLGFRFAPRLRDISDCKLYCIEGKEDFRNIQSVIKGKINTKIIKENYDDILKPVSSIKEGKVSGSLIMGKLGSYSRQNSLAKALTELGKIEKTIFILDYLSDEDFRRKIQIGLNKGEAMNALARAIFFGKYGMFHEKDIQGQLQRATALSIIINSITLWNTMYLPKAVEKLKEKEGVDESLLRHVSPLGWEHINFIGQYNLDDSSDYNLIDNMRPLREILQEGHHHHHH | not soluble |
| MSKSESPKEPEQLRKLFIGGLSFETTDESLRSHFEQWGTLTDCVVMRDPNTKRSRGFGFVTYATVEEVDAAMNARPHKVDGRVVEPKRAVSREDSQRPGAHLTVKKIFVGGIKEDTEEHHLRDYFEQYGKIEVIEIMTDRGSGKKRGFAFVTFDDHDSVDKIVIQKYHTVNGHNCEVRKALSKQEMASASSSQRGR | soluble |
| MYKLDHLNHNTLDESSLELHETPKGYTNVALFGLDSRDGELSGGVRSDSIMIVSINNKTGDVKIISVYRDTLLKQQDGSYEKANAAYSFGGPQEAVAMLNRNLDLDITKYASVNFNSLADIIDILGGVEVELTSEEIFWLNGYTAETSQVVGRQTHTLDENSPGVHNLDGIQAVSYTRIRYTAGDDFKRAERQRIILQKMIQKLKTAGPVKWNKILDQVLPEISTNMTTPDIMKLGLNIFRYKIGETKGFPFDITTSENVIGLEGSYAVAIGHADNVRQLHEQLFGETGYQPSDEVQQISQDVAYLTGVLEHHHHHH | soluble |
| MSKKIILITGASSGFGRLTAEALAGAGHRVYASMRDIVGRNASNVEAIAGFARDNDVDLRTLELDVQSQVSVDRAIDQIIGEDGRIDVLIHNAGHMVFGPAEAFTPEQFAELYDINVLSTQRVNRAALPHMRRQKHGLLIWISSSSSAGGTPPYLAPYFAAKAAMDAIAVQYARELSRWGIETSIIVPGAFTSGTNHFAHSGVPDDHARQAEYEAGPNAGLGEEIKKAFAAIVPPDADVSLVADAIVRVVGTASGKRPFRVHVDPAEDGADVGFSVLDRLRAEMLHRVGLSDLLKPRALA | soluble |
| STPETLPGHTKAKQPYREDTEWLKGQQIGLGAFSSCYQAQDVGTGTLMAVKQVTYVRNTSSEQEEVVEALREEIRMMSHLNHPNIIRMLGATCEKSNYNLFIEWMAGGSVAHLLSKYGAFKESVVINYTEQLLRGLSYLHENQIIHRDVKGANLLIDSTGQRLRIADFGAAARLASKGTGAGEFQGQLLGTIAFMAPEVLRGQQYGRSCDVWSVGCAIIEMACAKPPWNAEKHSNHLALIFKIASATTAPSIPSHLSPGLRDVALRCLELQPQDRPPSRELLKHPVFRTTW | soluble |
| MVLKERHKKICLLPSYSRLAHYPGLLMLTTLIYRSHIRGDEPVKKIEEMVSIANRRNMRSDVTGILLFNGSHFFQLLEGPEEQVQMIYRAICQDPRHYNIVELLCDYAPARRFGKAGMELFDLRLHERDDVLQAVFDKGTSKFQLTYDDRALQFFRTFVLATEQSTYFEIPAEDSWLFIADGSDKELDSCTLSSNINDHFAFHPIVDPLSRRIIAFEAIVQKNEDSPSAIAVGQRKDEEIYTADLKSKALAFAMAHALKLGDKMISINLLPMTLVNKPDAVSFLLDEIKANALVPEQIIVEFTESEVISRFDEFAEAVKSLKAAGISVAIDHFGAGFAGLLLLSRFQPDRIKISQELITNVHKSGPRQAIIQAIMKCCTSLEIQVSAMGVATPEEWMWLESAGIEMFQGDLFSKAKLNGIPSVAWPEKK | not soluble |
| MSAQKPGLHPRNRHQHRYDLAALCQTTPELTSFLIRTPAGEQSVDFANPQAVKALNKALLAHFYAVTHWDIPPGFLCPPVPGRADYIHHLADLLGETTGSIPAQATILDVGVGANCIYPLIGVHEYGWRFTGSEVSDAAMSSAQAIIQANTGLSRAIRLRRQKDPAAIFTGIIHKNEFYDATLCNPPFHDSAAAARAGSERKRRNLGQNKDDALNFGGQQQELWCEGGEVAFIKKMIAESQTFRRQVLWFTTLVSRGENLPPLYRALTEAGAVKVVKKEMAQGQKQSRFIAWTFMDDDQRRRFITRKRLEHHHHHH | soluble |
